The target in the assay is ヒト可溶性CD4 (human soluble CD4 prepared in Example 2, C-terminal FLAG-tag, from COS7 cells) (human) (UniProt P01730). Nature of the assay: SPR (BIAcore 2000), antibody amine-coupled on CM5, soluble CD4 as analyte. (SPR reads the build-up and loss of mass on a sensor chip optically.)

pKd: −log10 of the molar value.

Consider 13B8.2抗体 (イムノテック社) (antibody), for which the pKd (commonly the Kd on a negative log10 scale, so that one unit is a factor of ten) is 8.12; the koff (in general, the rate constant with which the complex falls apart) was 0.000138 s⁻¹; the kon (in general, the rate constant with which the complex forms) turned out to be 18200 M⁻¹ s⁻¹.
